T1: human TIGIT expressed on CHO-K1 cells (CHO-huTIGIT) (human, UniProt Q495A1 22-244)
T1 construct: whole, on cells; also called CHO-huTIGIT-eGFP; human TIGIT-expressing CHO cells
T1 sequence (looked up): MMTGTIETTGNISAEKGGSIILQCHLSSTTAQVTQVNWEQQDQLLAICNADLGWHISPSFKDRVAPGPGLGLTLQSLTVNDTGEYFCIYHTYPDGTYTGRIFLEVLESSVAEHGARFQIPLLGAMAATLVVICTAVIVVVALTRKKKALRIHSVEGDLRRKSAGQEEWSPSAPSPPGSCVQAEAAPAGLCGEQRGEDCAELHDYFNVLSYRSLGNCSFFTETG

T2: human TIGIT-HIS (Biointron, BI120) (human, UniProt Q495A1 22-141, limits assumed)
T2 construct: also called recombinant huTIGIT protein; recombinant human TIGIT protein; not shown: His tag
T2 sequence (looked up): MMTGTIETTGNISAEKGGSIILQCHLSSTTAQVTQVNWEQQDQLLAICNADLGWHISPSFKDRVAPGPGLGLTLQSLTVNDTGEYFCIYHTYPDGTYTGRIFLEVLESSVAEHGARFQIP

B1: JHH4B056a (antibody, V domains shown)
VH: EVQLVESGGGLVQPGRSLRLSCAASGFTFDDYAMHWVRQAPGKGLEWVSGISWNGIGIGYADSVKGRFTISRDNAKNSLYLQMNSLRAEDTALYYCAKDGGDYHYYGMDVWGQGTTVTVSS
VL: not shown
B2: JHH4A063 (antibody, V domains shown)
VH: B1 VH with A23T, T28N, A33G, G55S, G57S, Y60S, A88P, Y103H, H104Y
VL: DIMMTQSPLSLPVTPGEPASISCRSSQSLLHSNGYKYLNWYLQKPGQSPLLLIYLGSNRASGVPDRFSGSGSGTDFTLKISRVEAEDVGVYYCMQALQTPLTFGGGTKVEIK
notes: also called 4A063-hIgG1
B3: JHH4A057 (antibody, V domains shown)
VH: QVQLVQSGSELKKPGASVKVSCKASGYTLTSHALNWVRQAPGQGLEWMGWINTNTGNPTYVQGFTGRFVFSLDTSVSTAYLQISSLKAEDTAVYYCARGYSSPPRMDVWGQGTTVTVSS
VL: EIVLTQSPGTLFLSPGERATLSCRASQSVSRNYLVWYQQKPGQAPRLLIYGASTRATGIPDRFSGSGSGTDFTLTIRRLEPEDFALYYCQQYGSSPFTFGQGTKLEIN
B4: JHH4A042-H3 (antibody, V domains shown)
VH: QVQLQQSGPGLVKPSQTLSLTCAISGDSVSSNSAAWNWIRQSPSRGLEWLGRTYFRSKWYNDYAVSVKSRITINPDTSKNQFSLQLNSMTPEDTAVYYCARERALYDILAGSFDYWGQGTLVTVSS
VL: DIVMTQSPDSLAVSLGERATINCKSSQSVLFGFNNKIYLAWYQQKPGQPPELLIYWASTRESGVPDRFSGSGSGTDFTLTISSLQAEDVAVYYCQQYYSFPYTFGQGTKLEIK
B5: JHH4A042-H7 (antibody, V domains shown)
VH: B4 VH with A35V, F55Y
VL: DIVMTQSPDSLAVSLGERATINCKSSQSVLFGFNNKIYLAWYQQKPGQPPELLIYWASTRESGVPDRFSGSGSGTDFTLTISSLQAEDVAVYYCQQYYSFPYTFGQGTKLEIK
B6: JHH4B030a (antibody, V domains shown)
VH: QVQLQQSGPGLVKPSQTLSLTCAISGDSVSSNSAAWNWIRQSPSRGLEWLGRTYYRSKWYNDYAVSVKSRITINPDTSKNQFSLQLNSVTPEDTAVYYCARERGTYYDILTGDFDYWGQGTLVTVSS
VL: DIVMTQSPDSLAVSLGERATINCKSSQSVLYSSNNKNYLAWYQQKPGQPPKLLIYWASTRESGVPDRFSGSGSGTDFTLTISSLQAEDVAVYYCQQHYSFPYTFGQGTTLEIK
B7: JHH1B2-8C (antibody, V domains shown)
VH: QVQLQQSGPGLVKPSQTLSLTCAISGDSVSSNSAAWNWIRQSPSRGLEWLGRTYYRSKWYNDYAVSVKSRITINPDTSKNQFSLQLNSVTPEDTAVYYCAREGVLRYFDWLSGAFDIWGQGTMVTVSS
VL: not shown
B8: JHH4B037a (antibody, V domains shown)
VH: EVQLVESGGGLVQPGRSLRLSCEASGFSFDDYAMHWVRQAPGKGLEWVSGISWNSVTIGYADSVKGRFTISRDNAKNSLYLEMNSLRTEDTALYYCAKELPTYRYYALDGWGQGTAVTVSS
VL: not shown
B9: JHH4D035a (antibody, V domains shown)
VH: B1 VH with Y32F, Y95F, G100K, D102L, Y103R, H104R, T115I, T118I
VL: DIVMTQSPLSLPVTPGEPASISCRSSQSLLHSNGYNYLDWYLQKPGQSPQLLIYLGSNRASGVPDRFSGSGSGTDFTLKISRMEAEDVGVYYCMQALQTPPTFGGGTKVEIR
notes: Fully human antibody from TC-mAb mice
B10: JHH4E061a (antibody, V domains shown)
VH: B1 VH with V12I, R19T, A23V, Y80I, A88I, G100K, D102L, Y103R, H104R
VL: B2 VL with D1E, M3V, Q27R, K36N, N39D, L50Q, S81N, L101P
notes: as for B9

Residue numbers refer to the chain shown, from its start.

T3 sequence (A0A7N9I9V4 entry or part of it): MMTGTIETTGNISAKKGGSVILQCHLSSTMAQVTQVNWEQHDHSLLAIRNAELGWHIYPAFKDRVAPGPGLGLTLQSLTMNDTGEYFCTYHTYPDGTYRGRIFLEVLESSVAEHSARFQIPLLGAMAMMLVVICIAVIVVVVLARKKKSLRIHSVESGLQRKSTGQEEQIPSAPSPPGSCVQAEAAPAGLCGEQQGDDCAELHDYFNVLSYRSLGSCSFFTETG

One experiment deals with T1, human TIGIT expressed on CHO-K1 cells …. Kind of experiment: flow cytometry blocking assay on CHO-huTIGIT-eGFP cells; blocked ligand: biotinylated human CD155-Fc. How it is done: (§1) CHO-huTIGIT-eGFP cells were implanted in V-bottom 96 well plates. The antibodies of Example 2 and reference antibodies were diluted to different concentrations respectively and added (100 μL/well) to the 96 well plate covered with cells (100%)), incubated at 4° C. for 1 hour.
(§2) Washed the cells by adding 200 μL/well washing buffer, and centrifuged at 1600 rpm (˜260×g), 4° C. for 3 minutes, and discarded the supernatant, repeated twice. […] (on ice) for 1 hour. Add 30 μL washing buffer contains streptavidin-594 (f.c.=10 μg/ml) into the well, then the cells were incubated at 4° C. for 30 minutes. Wash once and transfer the cells to a flat bottom 96 well plate, and analyze the cells with CytoFLEX S. Take the logarithm of antibody concentration (μg/mL) with the base of 10 as the abscissa and the intermediate fluorescence value corresponding to each antibody concentration as the ordinate.
A general note: Flow cytometry measures light scatter and fluorescence of single cells or particles in a stream.
In the case of B1, the “IC50 (read off the curve)” value is about 1 µg/mL.
Same read-out and setting: the same measure for B2: about 0.5 µg/mL.
In the case of B3, the “IC50 (read off the curve)” value was about 0.9 µg/mL.
For the molecule B4, the “IC50 (read off the curve)” value is about 0.8 µg/mL.
B5: the “IC50 (read off the curve)” value is about 1 µg/mL.
For the molecule B6, the “IC50 (read off the curve)” value was about 0.8 µg/mL.
The same measure, in the same setting: the same measure for B7: about 1 µg/mL; for B8: about 0.8 µg/mL.

The next experiment has the same target. Nature of the experiment: flow cytometry on CHO-huTIGIT cells, anti-human IgG Fc Alexa Fluor 594. How it is done:
(§3) CHO-huTIGIT cells or CHO-mkTIGIT cells were implanted in 96 well plates. The antibodies of Example 2 were diluted to different concentrations respectively and added to 96 well plates covered with cells (100 μL/well), incubated at 4° C. (on ice) for 1 hour.
(§4) Washed the cells by adding 200 μL/well washing buffer, and centrifuged at 1600 rpm (˜260×g), 4° C. for 3 minutes, and discarded the supernatant, repeated twice. Add 30 μL washing buffer containing anti-human IgG secondary antibody (Jackson ImmunoResearch, #109-585-190, Alexa Fluor® 594 AffiniPure Goat Anti-Human IgG, Fcγ fragment specific) to each well, cultured cells at 4° C. (on ice) for 1 hour. Washing twice, transferred the cells to a flat bottom 96 well plate, and analyze the cells with CytoFLEX S. The antibody concentration was plotted with the logarithm of 10 as the abscissa and the median fluorescence value of two channels as the ordinate. The EC₅₀ (CHO-huTIGIT and CHO-mkTIGIT) and the peak value of the curve were compared.
The term EC50 denotes the concentration that produces a half-maximal response. Turning to B1, the EC50 worked out at 4.59 ng/mL.
On the same count and under the same terms, the same measure for B2: 3.49 ng/mL.
Still for that read-out and setting: the same measure for B3: 4.12 ng/mL.
B4 displayed an EC50 of 4.63 ng/mL.
Molecule B5 returned a half-maximal effective concentration (EC50) of 6.03 ng/mL.
With B6, the EC50 was determined as 4.3 ng/mL.
As for B7, a half-maximal response (EC50) required 5.49 ng/mL.
The same measure, in the same setting: the same measure for B8: 3.88 ng/mL.

The next experiment addresses T3, cynomolgus monkey TIGIT expressed on CHO-K1 cells (CHO-mkTIGIT) (cynomolgus monkey, UniProt A0A7N9I9V4 89-312).
T3 construct: whole, on cells
Nature of the experiment: flow cytometry on CHO-mkTIGIT cells, anti-human IgG Fc Alexa Fluor 594. How it is done:
as §3, §4
Take B1: the 50% effective concentration (EC50) worked out at 9.58 ng/mL.
Still for that read-out and setting: the same measure for B2: 4.25 ng/mL; for B3: 8.87 ng/mL.
As for B4, the midpoint of the response, the EC50, lay at 79.2 ng/mL.
B5 registered an EC50 of 605 ng/mL.
The molecule B6 displayed an EC50 of 857 ng/mL.
Molecule B8 gave an EC50 of 5.32 ng/mL.

The target of the next experiment is T2, human TIGIT-HIS (Biointron, BI120). Nature of the experiment: Octet BLI tandem epitope competition, TIGIT-HIS loaded on the sensor, first antibody step. A general note: Biolayer interferometry detects binding as a change in optical thickness at a sensor tip.
Consider B9, for which the binding result is listed as “binds”.
In the case of B10, the binding result was “binds”.

The next experiment deals with T3, cynomolgus monkey TIGIT expressed on …. Nature of the experiment: flow cytometry on CHO-mkTIGIT cells, anti-human IgG secondary antibody. Here is the method: as §3, §4
One may read the EC50 (read off the curve) as the concentration needed to bring the measured effect to its halfway point. As for B1, the “EC50 (read off the curve)” value was about 9 ng/mL.
Still for that read-out and setting: the same measure for B2: about 4 ng/mL; for B3: about 9 ng/mL.
The same measure, in the same setting: the same measure for B4: about 1000 ng/mL; for B8: about 5 ng/mL.

A further experiment has as its target T1, human TIGIT expressed on CHO-K1 cells …. Kind of experiment: flow cytometry competition on CHO-huTIGIT-eGFP cells; competitor biotinylated human CD155-Fc. How it is done:
as §1, §2
Broadly, the IC50 is the concentration that gives 50% inhibition. As to B1, the IC50 amounted to 1 µg/mL.
Molecule B2 came in with an IC50 of 0.559 µg/mL.
The same measure, in the same setting: the same measure for B3: 0.899 µg/mL.
On the same count and under the same terms, the same measure for B4: 0.8 µg/mL; for B5: 0.973 µg/mL; for B6: 0.777 µg/mL.
The same measure, in the same setting: the same measure for B7: 1.18 µg/mL.
B8 returned an IC50 of 0.79 µg/mL.

The values above are taken from patent publication US20250059275A1 (SHANGHAI NIGENE BIOLOGICAL SCIENCE AND TECHNOLOGY, published 2025).
